Sequences and labels used below:
B1: dually PEGylated FGF21 mutant E37C, R77C (ligand)
chain: MHPIPDSSPLLQFGGQVRQRYLYTDDAQQTEAHLEIRCDGTVGGAADQSPESLLQLKALKPGVIQILGVKTSRFLCQCPDGALYGSLHFDPEACSFRELLLEDGYNVYQSEAHGLPLHLPGNKSPHRDPAPRGPARFLPLPGLPPAPPEPPGILAPQPPDVGSSDPLSMVGPSQGRSPSYAS
modifications: 20 kDa methoxy-PEG-maleimide on Cys 37 and on Cys 77
B2: dually PEGylated FGF21 mutant G120C, H125C (ligand)
chain: MHPIPDSSPLLQFGGQVRQRYLYTDDAQQTEAHLEIREDGTVGGAADQSPESLLQLKALKPGVIQILGVKTSRFLCQRPDGALYGSLHFDPEACSFRELLLEDGYNVYQSEAHGLPLHLPCNKSPCRDPAPRGPARFLPLPGLPPAPPEPPGILAPQPPDVGSSDPLSMVGPSQGRSPSYAS
modifications: 20 kDa methoxy-PEG-maleimide on Cys 120 and on Cys 125
B3: dually PEGylated FGF21 mutant E37C, G120C (ligand)
chain: MHPIPDSSPLLQFGGQVRQRYLYTDDAQQTEAHLEIRCDGTVGGAADQSPESLLQLKALKPGVIQILGVKTSRFLCQRPDGALYGSLHFDPEACSFRELLLEDGYNVYQSEAHGLPLHLPCNKSPHRDPAPRGPARFLPLPGLPPAPPEPPGILAPQPPDVGSSDPLSMVGPSQGRSPSYAS
modifications: 20 kDa methoxy-PEG-maleimide on Cys 37 and on Cys 120
B4: dually PEGylated FGF21 mutant R77C, G120C (ligand)
chain: MHPIPDSSPLLQFGGQVRQRYLYTDDAQQTEAHLEIREDGTVGGAADQSPESLLQLKALKPGVIQILGVKTSRFLCQCPDGALYGSLHFDPEACSFRELLLEDGYNVYQSEAHGLPLHLPCNKSPHRDPAPRGPARFLPLPGLPPAPPEPPGILAPQPPDVGSSDPLSMVGPSQGRSPSYAS
modifications: 20 kDa methoxy-PEG-maleimide on Cys 77 and on Cys 120
B5: dually PEGylated FGF21 mutant G120C, R175C (ligand)
chain: MHPIPDSSPLLQFGGQVRQRYLYTDDAQQTEAHLEIREDGTVGGAADQSPESLLQLKALKPGVIQILGVKTSRFLCQRPDGALYGSLHFDPEACSFRELLLEDGYNVYQSEAHGLPLHLPCNKSPHRDPAPRGPARFLPLPGLPPAPPEPPGILAPQPPDVGSSDPLSMVGPSQGCSPSYAS
modifications: 20 kDa methoxy-PEG-maleimide on Cys 120 and on Cys 175
B6: dually PEGylated FGF21 mutant R77C, E91C (ligand)
chain: MHPIPDSSPLLQFGGQVRQRYLYTDDAQQTEAHLEIREDGTVGGAADQSPESLLQLKALKPGVIQILGVKTSRFLCQCPDGALYGSLHFDPCACSFRELLLEDGYNVYQSEAHGLPLHLPGNKSPHRDPAPRGPARFLPLPGLPPAPPEPPGILAPQPPDVGSSDPLSMVGPSQGRSPSYAS
modifications: 20 kDa methoxy-PEG-maleimide on Cys 77 and on Cys 91
B7: dually PEGylated FGF21 mutant K69C, H125C (ligand)
chain: MHPIPDSSPLLQFGGQVRQRYLYTDDAQQTEAHLEIREDGTVGGAADQSPESLLQLKALKPGVIQILGVCTSRFLCQRPDGALYGSLHFDPEACSFRELLLEDGYNVYQSEAHGLPLHLPGNKSPCRDPAPRGPARFLPLPGLPPAPPEPPGILAPQPPDVGSSDPLSMVGPSQGRSPSYAS
modifications: 20 kDa methoxy-PEG-maleimide on Cys 69 and on Cys 125
B8: dually PEGylated FGF21 mutant K69C, G120C (ligand)
chain: MHPIPDSSPLLQFGGQVRQRYLYTDDAQQTEAHLEIREDGTVGGAADQSPESLLQLKALKPGVIQILGVCTSRFLCQRPDGALYGSLHFDPEACSFRELLLEDGYNVYQSEAHGLPLHLPCNKSPHRDPAPRGPARFLPLPGLPPAPPEPPGILAPQPPDVGSSDPLSMVGPSQGRSPSYAS
modifications: 20 kDa methoxy-PEG-maleimide on Cys 69 and on Cys 120
B9: dually PEGylated FGF21 mutant E91C, H125C (ligand)
chain: MHPIPDSSPLLQFGGQVRQRYLYTDDAQQTEAHLEIREDGTVGGAADQSPESLLQLKALKPGVIQILGVKTSRFLCQRPDGALYGSLHFDPCACSFRELLLEDGYNVYQSEAHGLPLHLPGNKSPCRDPAPRGPARFLPLPGLPPAPPEPPGILAPQPPDVGSSDPLSMVGPSQGRSPSYAS
modifications: 20 kDa methoxy-PEG-maleimide on Cys 91 and on Cys 125
B10: dually PEGylated FGF21 mutant K69C, E91C (ligand)
chain: MHPIPDSSPLLQFGGQVRQRYLYTDDAQQTEAHLEIREDGTVGGAADQSPESLLQLKALKPGVIQILGVCTSRFLCQRPDGALYGSLHFDPCACSFRELLLEDGYNVYQSEAHGLPLHLPGNKSPHRDPAPRGPARFLPLPGLPPAPPEPPGILAPQPPDVGSSDPLSMVGPSQGRSPSYAS
modifications: 20 kDa methoxy-PEG-maleimide on Cys 69 and on Cys 91
B11: dually PEGylated FGF21 mutant E37C, R175C (ligand)
chain: MHPIPDSSPLLQFGGQVRQRYLYTDDAQQTEAHLEIRCDGTVGGAADQSPESLLQLKALKPGVIQILGVKTSRFLCQRPDGALYGSLHFDPEACSFRELLLEDGYNVYQSEAHGLPLHLPGNKSPHRDPAPRGPARFLPLPGLPPAPPEPPGILAPQPPDVGSSDPLSMVGPSQGCSPSYAS
modifications: 20 kDa methoxy-PEG-maleimide on Cys 37 and on Cys 175
B12: dually PEGylated FGF21 mutant E37C, H125C (ligand)
chain: MHPIPDSSPLLQFGGQVRQRYLYTDDAQQTEAHLEIRCDGTVGGAADQSPESLLQLKALKPGVIQILGVKTSRFLCQRPDGALYGSLHFDPEACSFRELLLEDGYNVYQSEAHGLPLHLPGNKSPCRDPAPRGPARFLPLPGLPPAPPEPPGILAPQPPDVGSSDPLSMVGPSQGRSPSYAS
modifications: 20 kDa methoxy-PEG-maleimide on Cys 37 and on Cys 125
B13: dually PEGylated FGF21 mutant E91C, R175C (ligand)
chain: MHPIPDSSPLLQFGGQVRQRYLYTDDAQQTEAHLEIREDGTVGGAADQSPESLLQLKALKPGVIQILGVKTSRFLCQRPDGALYGSLHFDPCACSFRELLLEDGYNVYQSEAHGLPLHLPGNKSPHRDPAPRGPARFLPLPGLPPAPPEPPGILAPQPPDVGSSDPLSMVGPSQGCSPSYAS
modifications: 20 kDa methoxy-PEG-maleimide on Cys 91 and on Cys 175
B14: dually PEGylated FGF21 mutant R77C, R175C (ligand)
chain: MHPIPDSSPLLQFGGQVRQRYLYTDDAQQTEAHLEIREDGTVGGAADQSPESLLQLKALKPGVIQILGVKTSRFLCQCPDGALYGSLHFDPEACSFRELLLEDGYNVYQSEAHGLPLHLPGNKSPHRDPAPRGPARFLPLPGLPPAPPEPPGILAPQPPDVGSSDPLSMVGPSQGCSPSYAS
modifications: 20 kDa methoxy-PEG-maleimide on Cys 77 and on Cys 175
B15: dually PEGylated FGF21 mutant E37C, K69C (ligand)
chain: MHPIPDSSPLLQFGGQVRQRYLYTDDAQQTEAHLEIRCDGTVGGAADQSPESLLQLKALKPGVIQILGVCTSRFLCQRPDGALYGSLHFDPEACSFRELLLEDGYNVYQSEAHGLPLHLPGNKSPHRDPAPRGPARFLPLPGLPPAPPEPPGILAPQPPDVGSSDPLSMVGPSQGRSPSYAS
modifications: 20 kDa methoxy-PEG-maleimide on Cys 37 and on Cys 69
B16: dually PEGylated FGF21 mutant R77C, H125C (ligand)
chain: MHPIPDSSPLLQFGGQVRQRYLYTDDAQQTEAHLEIREDGTVGGAADQSPESLLQLKALKPGVIQILGVKTSRFLCQCPDGALYGSLHFDPEACSFRELLLEDGYNVYQSEAHGLPLHLPGNKSPCRDPAPRGPARFLPLPGLPPAPPEPPGILAPQPPDVGSSDPLSMVGPSQGRSPSYAS
modifications: 20 kDa methoxy-PEG-maleimide on Cys 77 and on Cys 125
B17: dually PEGylated FGF21 mutant E91C, G120C (ligand)
chain: MHPIPDSSPLLQFGGQVRQRYLYTDDAQQTEAHLEIREDGTVGGAADQSPESLLQLKALKPGVIQILGVKTSRFLCQRPDGALYGSLHFDPCACSFRELLLEDGYNVYQSEAHGLPLHLPCNKSPHRDPAPRGPARFLPLPGLPPAPPEPPGILAPQPPDVGSSDPLSMVGPSQGRSPSYAS
modifications: 20 kDa methoxy-PEG-maleimide on Cys 91 and on Cys 120
B18: dually PEGylated FGF21 mutant E37C, E91C (ligand)
chain: MHPIPDSSPLLQFGGQVRQRYLYTDDAQQTEAHLEIRCDGTVGGAADQSPESLLQLKALKPGVIQILGVKTSRFLCQRPDGALYGSLHFDPCACSFRELLLEDGYNVYQSEAHGLPLHLPGNKSPHRDPAPRGPARFLPLPGLPPAPPEPPGILAPQPPDVGSSDPLSMVGPSQGRSPSYAS
modifications: 20 kDa methoxy-PEG-maleimide on Cys 37 and on Cys 91

We go through 18 molecules from patent US20160244497A1 (Amgen, published 2016).

The assay has as its target beta-klotho. The assay is described as follows: cell-based or functional assay.
Regarding B1, the “EC50, ELK-luciferase assay” value is 21 nM.

With B2, the “EC50, ELK-luciferase assay” value stood at 23 nM.

In the case of B3, the “EC50, ELK-luciferase assay” value stood at 55 nM.

For the molecule B4, the “EC50, ELK-luciferase assay” value was 34 nM.

Consider B5, for which the “EC50, ELK-luciferase assay” value came out at 118 nM.

With B6, the “EC50, ELK-luciferase assay” value is 26 nM.

For the molecule B7, the “EC50, ELK-luciferase assay” value amounted to 164 nM.

Take B8: the “EC50, ELK-luciferase assay” value is 119 nM.

Turning to B9, the “EC50, ELK-luciferase assay” value came to 32 nM.

Take B10: the “EC50, ELK-luciferase assay” value came out at 69 nM.

In the case of B11, the “EC50, ELK-luciferase assay” value was 50 nM.

As to B12, the “EC50, ELK-luciferase assay” value worked out at 64 nM.

Turning to B13, the “EC50, ELK-luciferase assay” value stood at 46 nM.

As to B14, the “EC50, ELK-luciferase assay” value stood at 62 nM.

Regarding B15, the “EC50, ELK-luciferase assay” value amounted to 67 nM.

On to B16, for which the “EC50, ELK-luciferase assay” value turned out to be 30 nM.

In the case of B17, the “EC50, ELK-luciferase assay” value was 54 nM.

B18: the “EC50, ELK-luciferase assay” value stood at 36 nM.
